In patent US20130142802A1 (published 2013):

B3: Flag-FGFR2-IIIb expressed on CHO cells (receptor, human)
chain: RPSFSLVEDTTLEPEEPPTKYQISQPEVYVAAPGESLEVRCLLKDAAVISWTKDGVHLGPNNRTVLIGEYLQIKGATPRDSGLYACTASRTVDSETWYFMVNVTDAISSGDDEDDTDGAEDFVSENSNNKRAPYWTNTEKMEKRLHAVPAANTVKFRCPAGGNPMPTMRWLKNGKEFKQEHRIGGYKVRNQHWSLIMESVVPSDKGNYTCVVENEYGSINHTYHLDVVERSPHRPILQAGLPANASTVVGGDVEFVCKVYSDAQPHIQWIKHVEKNGSKYGPDGLPYLKVLKHSGINSSNAEVLALFNVTEADAGEYICKVSNYIGQANQSAWLTVLPKQQAPGREKEITASPDYLEIAIYCIGVFLIACMVVTVILCRMKNTTKKPDFSSQPAVHKLTKRIPLRRQVTVSAESSSSMNSNTPLVRITTRLSSTADTPMLAGVSEYELPEDPKWEFPRDKLTLGKPLGEGCFGQVVMAEAVGIDKDKPKEAVTVAVKMLKDDATEKDLSDLVSEMEMMKMIGKHKNIINLLGACTQDGPLYVIVEYASKGNLREYLRARRPPGMEYSYDINRVPEEQMTFKDLVSCTYQLARGMEYLASQKCIHRDLAARNVLVTENNVMKIADFGLARDINNIDYYKKTTNGRLPVKWMAPEALFDRVYTHQSDVWSFGVLMWEIFTLGGSPYPGIPVEELFKLLKEGHRMDKPANCTNELYMMMRDCWHAVPSQRPTFKQLVEDLDRILTLTTNEEYLDLSQPLEQYSPSYPDTRSSCSSGDDSVFSPDPMPYEPCLPQYPHINGSVKT
notes: whole, on cells; also called CHO-FGFR2-IIIb; FGFR2-IIIb-expressing CHO cells; not shown: Flag-tag at the N-terminus
B4: FGFR2 IIIb-Fc (Fc fusion)
chain: TLEPEDAISSGDDEDDTDGAEDFVSENSNNKRAPYWTNTEKMEKRLHAVPAANTVKFRCPAGGNPMPTMRWLKNGKEFKQEHRIGGYKVRNQHWSLIMESVVPSDKGNYTCVVENEYGSINHTYHLDVVERSPHRPVLQAGLPANASTVVGGDVEFVCKVYSDAQPHIQWIKHVEKNGSKYGPDGLPYLKVLKHSGINSSNAEVLALFNVTEADAGEYICKVSNYIGQANQSAWLTVLPKQQAPGREKEITASPDYLEDKTHTCPPCPAPELLGGPSVFLFPPKPKDTLYITREPEVTCVVVDVSHEDPEVKFNWYVDGVEVHNAKTKPREEQYNSTYRVVSVLTVLHQDWLNGKEYKCKVSNKALPAPIEKTISKAKGQPREPQVYTLPPSREEMTKNQVSLTCLVKGFYPSDIAVEWESNGQPENNYKTTPPVLDSDGSFFLYSKLTVDKSRWQQGNVFSCSVMHEALKFHYTQKSLSLSPGK
notes: also called FGFR2IIIb beta-ECD; FGFR2IIIb-hFc

Tests used:
[1] = target: T1, 128AA-mFc (128-amino acid loop-3 fragment of FGFR2IIIc fused to mouse Fc) (human); assay: phage ELISA on coated protein
T1 chain: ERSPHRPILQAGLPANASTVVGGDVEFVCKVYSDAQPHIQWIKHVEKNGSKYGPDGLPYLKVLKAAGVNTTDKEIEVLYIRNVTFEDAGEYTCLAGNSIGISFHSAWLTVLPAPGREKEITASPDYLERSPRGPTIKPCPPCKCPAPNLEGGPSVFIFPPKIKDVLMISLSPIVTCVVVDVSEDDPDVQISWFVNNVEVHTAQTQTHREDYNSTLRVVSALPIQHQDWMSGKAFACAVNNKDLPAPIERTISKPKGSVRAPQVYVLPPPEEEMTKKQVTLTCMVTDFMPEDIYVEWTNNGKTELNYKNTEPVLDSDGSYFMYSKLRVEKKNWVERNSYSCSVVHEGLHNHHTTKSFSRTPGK

human ferritin (Fer) [2] = target: T2, human ferritin (Fer) (human, UniProt P02794 2-183; P02792 2-175, Natural ferritin is a 24-subunit shell of H and L chains in a tissue-dependent ratio, with an iron core. The letters carry one copy of each subunit.); assay: phage ELISA on coated protein
T2 construct: also called Feritin

human ovalbumin (OA) = human ovalbumin (OA) (human); assay: phage ELISA on coated protein
[3] = target: B3; assay: immunocytochemical staining of CHO cells transiently expressing FGFR2IIIb
FGFR2 IIIb-Fc = target: B4; assay: phage ELISA, plate coated with FGFR2 IIIb Fc fusion (whole extracellular domain)
human ferritin (Fer) [4] = target: T2, human ferritin (Fer); assay: phage ELISA on coated protein; remark: listed apart in the source
[5] = target: T3, FGFR2-IIIc (receptor protein of FIG. 52C) (UniProt P21802 152-377, limits assumed); assay: ELISA with biotinylated Atto-HuMab-01; the receptor concentration is varied (x axis: FGFR receptor concentration, nM)
[6] = target: B3; assay: immunocytochemistry on CHO cells
[7] = target: T4, Flag-FGFR2-IIIc expressed on CHO cells (human, UniProt P21802 22-821); assay: cell-based binding assay (cell ELISA) on stable CHO-FGFR2-IIIc cells
T4 construct: whole, on cells; also called CHO-FGFR2-IIIc; CHO-IIIc; not shown: Flag-tag at the N-terminus

[8] = target: T4, Flag-FGFR2-IIIc expressed on CHO cells; assay: cell-based binding assay on stable CHO-FGFR2-IIIc cells, method of Beatty et al.
[9] = target: T3, FGFR2-IIIc (receptor protein of FIG. …); assay: binding curves of biotinylated antibody on FGF receptors (FIG. 52C), format not told; biotinylated antibody, FIG. 52C receptor panel
[10] = target: T5, dcFv-01 (Fc-fusion of human scFv Clone 1) (human); assay: immunocytochemical staining of CHO cells transiently expressing FGFR2IIIb
T5 construct: scFv-1 fragment fused to the N-terminus of human IgG1 Fc; bivalent; also called dcFv-1; clone dcFv-1; not shown: human IgG1 Fc of vector pFUSE-hIgG1e2-Fc2(IL2ss) (Invivogen)

FGF8b = target: T6, FGF8b (UniProt P55075-3 23-215); assay: ligand binding ELISA (data not shown)
T6 construct: Coated on ELISA plates; also called ligand protein FGF8b
T6 sequence (looked up): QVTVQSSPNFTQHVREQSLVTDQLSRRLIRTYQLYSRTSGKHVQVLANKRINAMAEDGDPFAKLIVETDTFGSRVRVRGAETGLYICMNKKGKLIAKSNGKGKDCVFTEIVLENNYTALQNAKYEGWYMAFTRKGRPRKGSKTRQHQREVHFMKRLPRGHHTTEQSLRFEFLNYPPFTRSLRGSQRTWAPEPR

B1: human scFv clone 8, phage-displayed (scFv)
scFv: QSVLTQPPSVSAAPGQKVTISCSGSSSNIGNNYVSWYQQLPGTAPKLLIYDNNKRPSGIPDRFSGSKSGTSATLAISGLQSEDEADYYCAAWDDSLNGVVFGGGTKLTVLGSGGSTITSYNVYYTKLSSSGTQVQLVQSGAEVKKPGSSVKVSCKASGGTFSSYAISWVRQAPGQGLEWMGRIIPIFGTANYAQKFQGRVTITADESTSTAYMELNSLRSEDTAVYYCARDRWDWNDAFDIWGQGTMVTVSS
notes: also called scFv-8; Atto-HuMab-08
Question: B1 was tested. Which “OD (450 nm)” value [1] did it give?
Answer: 0.215

Question: What about the “OD (450 nm)” value (human ferritin (Fer) [2]) of the same binder?
Answer: 0.011

Question: What about the “OD (450 nm)” value (human ovalbumin (OA)) of the same binder?
Answer: 0.02

Question: Does B1 bind [3]?
Answer: no binding

Question: Does B1 bind (FGFR2 IIIb-Fc)?
Answer: no binding

Question: Does B1 bind (human ferritin (Fer) [4])?
Answer: no binding

B2: Atto-HuMab-01 (full-length human IgG1) (antibody, V domains shown)
VH: QVQLVQSGAEVKKPGSSVKVSCKASGGTFSSYAISWVRQAPGQGLEWMGRIIPIFGTANYAQKFQGRVTITADESTSTAYMELNSLRSEDTAVYYCARDRWDWNDAFDIWGQGTMVTVSS
VL: not shown
notes: also called Atto-01
Question: B2 was tested. Which “EC50 (read off the curve)” value [5] did it give?
Answer: ~200 pM

Question: Does B2 bind [6]?
Answer: no binding (tested: 1ug/ml)

Question: What about the “EC50 (read off the curve)” value [7] of the same binder?
Answer: ~400 pM

Question: What about the Kd [8] of the same binder?
Answer: 700 pM

Question: What about the Kd [9] of the same binder?
Answer: ~200 pM

Question: Does B3 bind [10]?
Answer: no binding

Question: Does B4 bind (FGF8b)?
Answer: no binding
